Measurements reported in PMC2199218 (The Journal of Cell Biology, 2002).
Where “and” joins values, the source holds several entries; their conditions need not be identical. Equal values may be shown once.

What was measured:
[1] = molecular target: integrin β1A cytoplasmic domain fused to the Gal4 DNA BD (human); test: two-hybrid
cross-linking = molecular target: the molecule itself; test: cross-linking

integrin β1A cytoplasmic domain fused to the Gal4 DNA BD (human), sequence (P05556 21-798): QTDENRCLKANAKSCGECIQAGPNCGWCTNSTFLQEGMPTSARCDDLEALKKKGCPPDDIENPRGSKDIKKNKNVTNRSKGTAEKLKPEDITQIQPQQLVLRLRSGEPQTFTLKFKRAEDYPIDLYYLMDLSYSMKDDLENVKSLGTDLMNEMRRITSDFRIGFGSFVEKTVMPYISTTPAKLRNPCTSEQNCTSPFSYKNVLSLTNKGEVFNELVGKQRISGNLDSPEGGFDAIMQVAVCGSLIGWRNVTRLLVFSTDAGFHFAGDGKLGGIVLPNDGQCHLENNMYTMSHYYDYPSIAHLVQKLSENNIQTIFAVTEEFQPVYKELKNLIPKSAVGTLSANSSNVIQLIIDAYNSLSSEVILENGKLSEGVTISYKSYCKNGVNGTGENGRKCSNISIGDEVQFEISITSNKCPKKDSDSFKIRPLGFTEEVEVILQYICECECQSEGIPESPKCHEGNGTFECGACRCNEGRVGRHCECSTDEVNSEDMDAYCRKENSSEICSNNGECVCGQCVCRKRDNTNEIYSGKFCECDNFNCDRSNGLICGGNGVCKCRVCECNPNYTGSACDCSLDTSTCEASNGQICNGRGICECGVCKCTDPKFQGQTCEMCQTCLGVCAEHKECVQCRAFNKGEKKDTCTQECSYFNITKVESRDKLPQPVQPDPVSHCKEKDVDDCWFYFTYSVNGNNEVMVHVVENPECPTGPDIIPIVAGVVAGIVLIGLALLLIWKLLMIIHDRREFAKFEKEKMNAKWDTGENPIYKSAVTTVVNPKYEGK
filamin-B_(var-1)(19–24), Gal4 AD fusion (domain or fragment), sequence (O75369 whole entry, the tested form may be a part): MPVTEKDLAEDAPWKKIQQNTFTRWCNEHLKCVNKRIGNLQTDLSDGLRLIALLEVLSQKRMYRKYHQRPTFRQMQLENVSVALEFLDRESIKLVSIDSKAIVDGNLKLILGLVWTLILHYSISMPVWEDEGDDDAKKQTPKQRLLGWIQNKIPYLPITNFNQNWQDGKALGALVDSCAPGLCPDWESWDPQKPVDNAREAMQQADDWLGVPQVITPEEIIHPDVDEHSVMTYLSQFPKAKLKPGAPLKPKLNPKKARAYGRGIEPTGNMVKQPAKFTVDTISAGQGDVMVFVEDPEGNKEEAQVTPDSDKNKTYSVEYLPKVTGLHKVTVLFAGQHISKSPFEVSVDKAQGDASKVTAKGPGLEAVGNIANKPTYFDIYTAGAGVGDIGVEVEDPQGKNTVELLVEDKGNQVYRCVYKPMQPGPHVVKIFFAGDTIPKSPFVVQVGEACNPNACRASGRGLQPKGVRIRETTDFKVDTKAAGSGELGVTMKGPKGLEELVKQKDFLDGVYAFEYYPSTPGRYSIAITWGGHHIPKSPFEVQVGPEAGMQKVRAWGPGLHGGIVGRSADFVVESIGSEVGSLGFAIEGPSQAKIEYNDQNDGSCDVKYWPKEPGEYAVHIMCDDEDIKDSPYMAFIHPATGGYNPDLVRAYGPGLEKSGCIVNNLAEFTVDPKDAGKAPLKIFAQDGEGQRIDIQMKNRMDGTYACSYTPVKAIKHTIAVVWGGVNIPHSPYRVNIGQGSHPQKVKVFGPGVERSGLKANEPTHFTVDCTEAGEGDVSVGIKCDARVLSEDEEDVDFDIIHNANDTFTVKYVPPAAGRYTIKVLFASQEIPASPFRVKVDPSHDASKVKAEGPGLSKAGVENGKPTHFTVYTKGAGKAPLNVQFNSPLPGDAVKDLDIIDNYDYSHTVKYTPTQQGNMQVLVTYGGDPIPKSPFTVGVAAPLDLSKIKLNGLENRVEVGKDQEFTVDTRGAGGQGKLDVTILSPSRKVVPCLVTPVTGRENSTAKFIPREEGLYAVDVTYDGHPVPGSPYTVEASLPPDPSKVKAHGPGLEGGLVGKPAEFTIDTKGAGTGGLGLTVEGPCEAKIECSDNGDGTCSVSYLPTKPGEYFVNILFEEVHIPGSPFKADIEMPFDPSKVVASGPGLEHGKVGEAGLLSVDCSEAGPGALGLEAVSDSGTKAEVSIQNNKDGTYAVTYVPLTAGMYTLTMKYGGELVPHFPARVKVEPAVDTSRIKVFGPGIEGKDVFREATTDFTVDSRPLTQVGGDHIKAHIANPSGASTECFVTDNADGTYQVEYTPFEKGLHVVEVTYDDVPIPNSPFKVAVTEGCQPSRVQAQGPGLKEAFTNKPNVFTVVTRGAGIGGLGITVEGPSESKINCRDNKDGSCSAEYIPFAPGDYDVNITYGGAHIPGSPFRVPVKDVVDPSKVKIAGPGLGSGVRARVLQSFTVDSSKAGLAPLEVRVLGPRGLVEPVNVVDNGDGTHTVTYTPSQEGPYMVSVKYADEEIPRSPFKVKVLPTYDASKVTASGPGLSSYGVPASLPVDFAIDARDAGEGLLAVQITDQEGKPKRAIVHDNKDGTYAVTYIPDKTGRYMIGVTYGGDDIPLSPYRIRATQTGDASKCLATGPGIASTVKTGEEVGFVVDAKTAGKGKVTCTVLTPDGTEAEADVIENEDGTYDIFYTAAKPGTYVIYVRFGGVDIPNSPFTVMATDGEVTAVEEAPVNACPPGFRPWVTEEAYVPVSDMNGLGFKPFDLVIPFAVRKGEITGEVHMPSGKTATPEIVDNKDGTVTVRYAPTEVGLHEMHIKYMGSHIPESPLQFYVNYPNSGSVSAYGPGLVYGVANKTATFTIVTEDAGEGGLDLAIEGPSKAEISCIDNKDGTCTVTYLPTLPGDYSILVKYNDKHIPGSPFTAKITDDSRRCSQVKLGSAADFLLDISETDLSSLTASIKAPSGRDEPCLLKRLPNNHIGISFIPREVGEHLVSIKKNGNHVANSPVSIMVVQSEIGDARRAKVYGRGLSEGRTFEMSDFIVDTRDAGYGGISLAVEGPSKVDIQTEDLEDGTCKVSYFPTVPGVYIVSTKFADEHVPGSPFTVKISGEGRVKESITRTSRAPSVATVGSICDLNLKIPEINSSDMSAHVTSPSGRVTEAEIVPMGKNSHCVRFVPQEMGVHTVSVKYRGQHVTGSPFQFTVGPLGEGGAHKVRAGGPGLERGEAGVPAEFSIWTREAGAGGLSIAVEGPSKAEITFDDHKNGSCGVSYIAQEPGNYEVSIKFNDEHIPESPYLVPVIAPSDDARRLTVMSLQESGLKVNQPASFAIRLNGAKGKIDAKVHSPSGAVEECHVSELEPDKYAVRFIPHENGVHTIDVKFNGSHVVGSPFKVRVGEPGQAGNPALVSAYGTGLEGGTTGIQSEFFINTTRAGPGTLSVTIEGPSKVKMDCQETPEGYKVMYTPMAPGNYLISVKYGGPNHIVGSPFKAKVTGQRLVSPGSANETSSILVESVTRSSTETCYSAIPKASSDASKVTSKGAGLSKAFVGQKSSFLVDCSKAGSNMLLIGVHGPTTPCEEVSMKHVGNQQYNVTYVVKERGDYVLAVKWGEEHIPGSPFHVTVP

| fold binding (β-galactosidase activity) against wild-type filamin-B(19–24) [1] | Molecule | stoichiometry N (cross-linking) |
| --- | --- | --- |
| 2 fold and 3 fold | filamin-B_(var-1)(19–24), Gal4 AD fusion (domain or fragment) | – |
| – | NH2-terminal HA-tagged FLN-B(19–24) (domain or fragment, human, UniProt O75369-1 2009-2602, looked up) GRGLSEGRTFEMSDFIVDTRDAGYGGISLAVEGPSKVDIQTEDLEDGTCKVSYFPTVPGVYIVSTKFADEHVPGSPFTVKISGEGRVKESITRTSRAPSVATVGSICDLNLKIPEINSSDMSAHVTSPSGRVTEAEIVPMGKNSHCVRFVPQEMGVHTVSVKYRGQHVTGSPFQFTVGPLGEGGAHKVRAGGPGLERGEAGVPAEFSIWTREAGAGGLSIAVEGPSKAEITFDDHKNGSCGVSYIAQEPGNYEVSIKFNDEHIPESPYLVPVIAPSDDARRLTVMSLQESGLKVNQPASFAIRLNGAKGKIDAKVHSPSGAVEECHVSELEPDKYAVRFIPHENGVHTIDVKFNGSHVVGSPFKVRVGEPGQAGNPALVSAYGTGLEGGTTGIQSEFFINTTRAGPGTLSVTIEGPSKVKMDCQETPEGYKVMYTPMAPGNYLISVKYGGPNHIVGSPFKAKVTGQRLVSPGSANETSSILVESVTRSSTETCYSAIPKASSDASKVTSKGAGLSKAFVGQKSSFLVDCSKAGSNMLLIGVHGPTTPCEEVSMKHVGNQQYNVTYVVKERGDYVLAVKWGEEHIPGSPFHVTVP | 2 |
| – | COOH-terminal GFP-tagged FLN-B(19–24) (domain or fragment, human, UniProt O75369-1 2009-2602, looked up) GRGLSEGRTFEMSDFIVDTRDAGYGGISLAVEGPSKVDIQTEDLEDGTCKVSYFPTVPGVYIVSTKFADEHVPGSPFTVKISGEGRVKESITRTSRAPSVATVGSICDLNLKIPEINSSDMSAHVTSPSGRVTEAEIVPMGKNSHCVRFVPQEMGVHTVSVKYRGQHVTGSPFQFTVGPLGEGGAHKVRAGGPGLERGEAGVPAEFSIWTREAGAGGLSIAVEGPSKAEITFDDHKNGSCGVSYIAQEPGNYEVSIKFNDEHIPESPYLVPVIAPSDDARRLTVMSLQESGLKVNQPASFAIRLNGAKGKIDAKVHSPSGAVEECHVSELEPDKYAVRFIPHENGVHTIDVKFNGSHVVGSPFKVRVGEPGQAGNPALVSAYGTGLEGGTTGIQSEFFINTTRAGPGTLSVTIEGPSKVKMDCQETPEGYKVMYTPMAPGNYLISVKYGGPNHIVGSPFKAKVTGQRLVSPGSANETSSILVESVTRSSTETCYSAIPKASSDASKVTSKGAGLSKAFVGQKSSFLVDCSKAGSNMLLIGVHGPTTPCEEVSMKHVGNQQYNVTYVVKERGDYVLAVKWGEEHIPGSPFHVTVP | 2 |
